From paper PMC9156741, “Blocking phospholamban with VHH intrabodies enhances contractility and relaxation in heart failure” (Nature Communications, 2022)

Experiments:
[1] = target: T1, PLN peptide V (biotin-HPDP-Cys-EKVQYLTRSAIRRASTIEMPQQARQ-NH2) (biotin-HPDP on the N-terminal Cys (cysteine persulphide); C-terminal amidation); assay: SPR
T1 peptide: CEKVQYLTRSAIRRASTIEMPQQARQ

[2] = target: T1, PLN peptide V …; assay: SPR
[3] = target: T2, pS16 PLN peptide VI (biotin-HPDP-Cys-EKVQYLTRSAIRRApSTIEMPQQARQ-NH2) (phosphoserine at Ser 16 (pS in the printed sequence); biotin-HPDP on the N-terminal Cys (cysteine persulphide); C-terminal amidation); assay: SPR; Biacore T200; peptide V or VI immobilised on streptavidin SA chip (50-100 RU); VHH2 as analyte, single-cycle kinetics; PBS pH 7.4 + 0.05% Tween 20; bivalent analyte model; apparent Kd; conditions: both partners purified
T2 construct: added N-terminal cysteine residue that carries biotin-HPDP; phospholamban (PLN), stretch of the cytoplasmic regulatory domain, phosphorylated at Ser 16; also called p16S PLN peptide; source: synthetic peptide (Bachem, Switzerland)
T2 peptide: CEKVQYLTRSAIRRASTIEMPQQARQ

[4] = target: T3, PLN peptide V (biotin-HPDP-Cys-EKVQYLTRSAIRRASTIEMPQQARQ-NH2) (biotin-HPDP on the N-terminal Cys (cysteine persulphide); C-terminal amidation); assay: as above; conditions: both partners purified
T3 construct: added N-terminal cysteine residue that carries biotin-HPDP; phospholamban (PLN), stretch of the cytoplasmic regulatory domain; also called non-phosphorylated PLN peptide; source: synthetic peptide (Bachem, Switzerland)
T3 peptide: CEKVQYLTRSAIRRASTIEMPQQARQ

[5] = target: T4, pS16 PLN peptide VI (biotin-HPDP-Cys-EKVQYLTRSAIRRApSTIEMPQQARQ-NH2) (phosphoserine at Ser 16 (pS in the printed sequence); biotin-HPDP on the N-terminal Cys (cysteine persulphide); C-terminal amidation); assay: SPR; pS16 phosphorylated
T4 peptide: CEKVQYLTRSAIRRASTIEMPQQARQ

[6] = target: pS16 PLN peptide VI (biotin-HPDP-Cys-…p…-NH2); assay: SPR; Biacore T200; peptide V or VI immobilised on streptavidin SA chip (50-100 RU); VHH as analyte, single-cycle kinetics with five increasing concentrations; PBS pH 7.4 + 0.05% Tween 20; 1:1 Langmuir model
[7] = target: T4, pS16 PLN peptide VI …; assay: SPR; pS16 phosphorylated; kinetic fit
[8] = target: T2, pS16 PLN peptide VI …; assay: SPR; Biacore T200; peptide V or VI immobilised on streptavidin SA chip (50-100 RU); VHH as analyte, single-cycle kinetics with five increasing concentrations; PBS pH 7.4 + 0.05% Tween 20; 1:1 Langmuir model; conditions: both partners purified
[9] = target: T3, PLN peptide V …; assay: as above; conditions: both partners purified

B1: VHH2 B4B4 (VHH)
chain: EVQLQESGGGLVQAGGSLRLSCAASGFSFYRHAMGWFRQAPGKEREWVAEIDWEGGYTYYADSVKGRFTISRDNAKNTVYLQMNSLKPEDTAVYYCAAGRDLYAYWGQGTQVTVSSGGGSGGGSGGGSEVQLQESGGGLVQAGGSLRLSCAASGFSFYRHAMGWFRQAPGKEREWVAEIDWEGGYTYYADSVKGRFTISRDNAKNTVYLQMNSLKPEDTAVYYCAAGRDLYAYWGQGTQVTVSS
notes: N-terminal VHH B4 domain; (Gly3Ser)3 linker, as named in the methods and encoded by the printed primers; C-terminal VHH B4 domain; Bivalent VHH on one chain; also called bivalent variant of VHH B4; bivalent VHH2 B4B4; source: E. coli HB2151 (pHEN4 vector); expressed and purified according to previously described protocols
- koff [1]: 0.00011 s⁻¹
- Kd [2]: 0.1 nM
- Kd [3]: 1 nM
- Kd [4]: 0.15 nM
- koff [5]: 0.0052 s⁻¹

B2: VHH C6 (VHH)
VHH: EVQLQESGGGLVQAGGSLRLSCAASGFTLYAMGWFRQAPGKEREFVAAITPHGSTTYYADSVKGRFTISRDNAKNTVYLQMNSLKPEDTAVYYCHTYYSGSWGQGTQVTVSS
- Kd [6]: 680 nM
- koff [5]: 0.33 s⁻¹

B3: VHH B4 (VHH)
VHH: EVQLQESGGGLVQAGGSLRLSCAASGFSFYRHAMGWFRQAPGKEREWVAEIDWEGGYTYYADSVKGRFTISRDNAKNTVYLQMNSLKPEDTAVYYCAAGRDLYAYWGQGTQVTVSS
notes: VHH B4, from the synthetic LlamdA phage-display VHH library (llama VHH framework); also called clone B4; source: E. coli HB2151, small-scale cultures induced with IPTG (ELISA); expressed and purified according to previously described protocols (SPR)
- Kd [7]: 618 nM
- koff [1]: 0.025 s⁻¹
- koff [5]: 0.18 s⁻¹
- Kd [8]: 682 nM
- Kd [9]: 44 nM
